T1: VEGFR-3/EpoR (Homo sapiens, UniProt P35916)
T1 construct: a chimeric receptor containing the extracellular domain of human VEGFR-1, VEGFR-2 or VEGFR-3 fused with the transmembrane and cytoplasmic domains; expressed in transfected cells; host or cells: murine Ba/F3 pre-B cells, stably transfected
T1 sequence (P35916 25-775 limits assumed): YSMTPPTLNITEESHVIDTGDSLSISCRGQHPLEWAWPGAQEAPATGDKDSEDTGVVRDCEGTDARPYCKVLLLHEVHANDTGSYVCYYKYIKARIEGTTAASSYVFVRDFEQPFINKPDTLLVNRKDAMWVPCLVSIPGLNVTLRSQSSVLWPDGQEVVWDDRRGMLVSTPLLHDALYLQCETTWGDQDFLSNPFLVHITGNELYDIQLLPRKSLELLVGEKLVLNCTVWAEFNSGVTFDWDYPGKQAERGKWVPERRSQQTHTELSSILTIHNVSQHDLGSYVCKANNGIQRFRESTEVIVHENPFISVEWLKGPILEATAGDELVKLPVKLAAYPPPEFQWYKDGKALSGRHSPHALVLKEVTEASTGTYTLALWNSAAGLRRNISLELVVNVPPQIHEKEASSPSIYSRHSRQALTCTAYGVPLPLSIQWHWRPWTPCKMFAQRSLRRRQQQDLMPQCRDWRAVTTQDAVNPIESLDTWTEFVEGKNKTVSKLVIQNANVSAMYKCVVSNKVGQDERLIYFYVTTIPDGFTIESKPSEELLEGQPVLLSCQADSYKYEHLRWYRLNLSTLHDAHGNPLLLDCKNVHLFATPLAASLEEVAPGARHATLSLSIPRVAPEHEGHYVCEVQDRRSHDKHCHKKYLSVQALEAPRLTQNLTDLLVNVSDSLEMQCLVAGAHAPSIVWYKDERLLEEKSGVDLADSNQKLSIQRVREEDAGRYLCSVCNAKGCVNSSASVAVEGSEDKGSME


How the values were obtained:
[1] = tested on: CREB; test: CREB Ser133 phosphorylation in HMVE cells, Western blot; format: cell-based, human; conditions: HMVECs
Procedure: Western blot analysis. Endothelial cells were cultured on 35 mm dishes to near confluence, starved for 24 h in serum free medium and stimulated as indicated. Wortmannin ([…]), LY294002 ([…]), PD98059 (10-25 μM) or GF109203X (2.5-5 μM) were added 1-3 h before stimulation, where indicated. DMSO, into which the inhibitors were dissolved, was used as a control. After the stimulation, the cells were lysed in lysis buffer (50 mM HEPES, pH 7.5, 150 mM NaCl, 10 mM EDTA, 100 mM NaF, 1% TritonX-100 supplemented with 2 mM Na3VO4, 0.5 mM PMSF, 100 U/ml approtinin and 10 μg/ml leupeptin). Clarified lysates were separated by SDS-PAGE, transferred to nitrocellulose and immunoblotted using the phosphospecific antibodies for Akt-Ser473, Akt-Thr308, p42/44 MAPK-Thr202/Tyr204 or CREB-Ser133. The bound antibodies were detected using horseradish peroxidase conjugated secondary antibodies and enhanced chemiluminescence detection system. The blots were stripped and reprobed with antibodies against Akt, MAPK or CREB for quantification by reading the optical densities of the signals with Multi-Analyst 2.0.1 program (Bio-Rad).
The p42/p44 MAPK activation was detected by Western blotting using phospho-Thr202/Tyr204-MAPK specific antibodies and CREB phosphorylation using phospho-Ser133 specific antibodies. The growth factor concentrations used were: VEGF 10 ng/ml, VEGF-C 100 ng/ml and VEGF-C156S 500 ng/ml. […] Effects of inhibition of protein kinase C by GF109203X, MEK1 by PD98059 and PI-3 kinase by LY294002 on p42/p44 MAPK Thr202/Tyr204 phosphorylation, CREB Ser133 phosphorylation and Akt Ser473 phosphorylation in HMVE cells. The growth factor concentrations used were: VEGF 1 ng/ml, VEGF-C 10 ng/ml and VEGF-C156S 500 ng/ml

[2] = target: T1, VEGFR-3/EpoR; test: Ba/F3 bioassay, viability (MTT) of VEGFR-3/EpoR cells; format: cell-based
Procedure: FIG. 1A-FIG. 1C. Analysis of the receptor-specificities of different VEGFs using the Ba/F3 bioassay. Measurement of the viability of Ba/F3 cells expressing the chimeric receptors VEGFR-1/EpoR (FIG. 1A), VEGFR-2/EpoR (FIG. 1B) or VEGFR-3/EpoR (FIG. 1C) in the presence of different VEGFs at indicated concentrations. Cell viability was determined using the MTT assay. Data represent the mean values from triplicate assays (mean±s.d.). FIG. 1D-FIG. 1G. Biosensor analysis of the interaction of VEGF-C (FIG. 1D, FIG. 1E) and VEGF-C156S (FIG. 1F, FIG. 1G) with VEGFR-3 (FIG. 1D, FIG. 1F) and VEGFR-2 (FIG. 1E, FIG. 1G). Chimeric receptor proteins were immobilized onto a carboxymethylated dextran surface. Growth factors were injected over the surface at a flow rate of 20 μl/min at the indicated concentrations. The sensorgrams shown have been subtracted with the corresponding signal obtained when the same sample was passed over a blank control channel.
Bioassay for VEGFR stimulation. […]
VEGF is an endothelial cell mitogen which has been also shown to protect endothelial cells from starvation and TNF-a induced apoptosis via activation of VEGFR-2 (Gerber et al, J. Biol. Chem., 273:30336-30343, 1998; Spyridopoulos et al., J. Mol. Cell. Cardiol., 29:1321-1330, 1997). […] The specificities of the growth factors used were determined using a cell survival bioassay. […]

| Molecule | CREB phosphorylation on growth factor stimulation [1] | concentration which gave maximal viability in VEGFR-3/EpoR cell survival assays ([2]; Ba/F3 VEGFR-3/EpoR cells) [ng/mL] | survival of VEGFR-3/EpoR expressing cells ([2]; Ba/F3 cells, FIG. 1C) |
| --- | --- | --- | --- |
| VEGF | detected | – | – |
| VEGF-C156S: VEGFR-3 specific mutant form of VEGF-C, cysteine 156 changed into serine; recombinant human (Thr103 to Ile225) (protein, UniProt P49767 103-225, looked up, variant C156S) TEETIKFAAAHYNTEILKSIDNEWRKTQCMPREVCIDVGKEFGVATNTFFKPPSVSVYRCGGCCNSEGLQCMNTSTSYLSKTLFEITVPLSQGPKPVTISFANHTSCRCMSKLDVYRQVHSII | – | 500 | VEGFR-3/EpoR expressing cells survived |

From patent US20080317723A1, “LYMPHATIC ENDOTHELIAL CELLS MATERIALS AND METHODS” (VEGENICS LIMITED, priority 2001, published 2008)
